Measurements taken from the supplement of paper PMC7877785.
± gives the uncertainty stated by the source.

Experiment: self-splicing fitness, log relative to wild type (ln ratio); higher = more splicing; Tetrahymena group I intron in knt gene, E. coli kanamycin selection, DiMSum; sequences stand for … in CUCUCU…GGAGGGAAAAGUUAUCAGGCAUGCACCUGGUAGCUAGUCUUUAAACCAAUAGAUUGCAUCGGUUUAAAAGGCAAGACCGUCAAAUUGCGGGAAAGGGGUCAACAGCCGUUCAGUACCAAGUCUCAGGGGAAACUUUGAGAUGGCCUUGCAAAGGGUAUGGUAAUAAGCUGACGGACAUGGUCCUAACCACGCAGCCAAGUCCUAAGUCAACAGAUCUUCUGUUGAUAUGGAUGCAGUUCACAGACUAAAUGUCGGUCGGGGAAGAUGUAUUCUUCUCAUAAGAUAUAGUCGGACCUCUCCUUAAUGGGAGCUAGCGGAUGAAGUGAUGCAACACUGGAGCCGCUGGGAACUAAUUUGUAUGCGAAAGUAUAUUGAUUAGUUUUGGAGUACUCGUGGUCG
Procedure, shortened: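 DiMSum derived fitness as the error-weighted combination of fold changes across replicates, kanamycin versus no kanamycin, normalised to wild type. E. coli BL21(DE3) held the library, which randomised all eight P1ex-region intron nucleotides within the knt kanamycin-resistance gene on pET-22b(+). Six replicate transformations grew overnight at 37°C or 30°C on LB agar with or without 25 μg/mL kanamycin, also containing 100 μg/mL carbenicillin, 50 μM IPTG and 0.2% rhamnose, and pooled colonies were amplicon-sequenced on an Illumina HiSeq 2500.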

Sequence	self-splicing fitness (ln) (30 °C)	self-splicing fitness (ln) (37 °C)
UCCUAGCAAUAUUACGCAGG	-1.8 ± 0.46	-2.88 ± 0.37
UCCUAGCAAUAUUACGCCUG	-2.87 ± 0.39	-2.57 ± 0.46
UCCUAGCAAUAUUACGCGAA	-2.24 ± 0.22	-1.67 ± 0.17
UCCUAGCAAUAUUACGCGCU	-2.24 ± 0.14	-2.73 ± 0.23
UCCUAGCAAUAUUACGCUAG	-3.47 ± 0.44	
UCCUAGCAAUAUUACGCUAU	-2.89 ± 0.21	-2.43 ± 0.27
UCCUAGCAAUAUUACGCUUU		-1.85 ± 0.29
UCCUAGCAAUAUUACGGAAC		-2.69 ± 0.24
UCCUAGCAAUAUUACGGACU	-3.59 ± 0.24	-2.39 ± 0.22
UCCUAGCAAUAUUACGGCAC		-2.14 ± 0.24
UCCUAGCAAUAUUACGGCUG	-3.67 ± 0.39	-1.37 ± 0.47
UCCUAGCAAUAUUACGGGCA	-0.22 ± 0.085	0.2 ± 0.097
UCCUAGCAAUAUUACGGGUC	-3.81 ± 0.22	-2.71 ± 0.28
UCCUAGCAAUAUUACGGUCC	-2.63 ± 0.24	
UCCUAGCAAUAUUACGUAUA	-3.53 ± 0.28	-2.03 ± 0.16
UCCUAGCAAUAUUACGUCGU	-2.3 ± 0.13	-0.732 ± 0.13
UCCUAGCAAUAUUACGUGUC	-3.06 ± 0.34	-2.71 ± 0.38
UCGAAGCAAUAUUACGACCG	-0.853 ± 0.12	-0.898 ± 0.14
UCGAAGCAAUAUUACGACGC	0.247 ± 0.19	-0.514 ± 0.2
UCGAAGCAAUAUUACGACGU	-0.755 ± 0.1	-0.205 ± 0.099
UCGAAGCAAUAUUACGAGAA	-1.94 ± 0.41	-1.23 ± 0.3
UCGAAGCAAUAUUACGAGUA	-2.08 ± 0.14	-0.398 ± 0.12
UCGAAGCAAUAUUACGAGUG	-1.56 ± 0.1	-1.52 ± 0.15
UCGAAGCAAUAUUACGAUCG	-1.25 ± 0.099	-0.609 ± 0.12
UCGAAGCAAUAUUACGCAGU	-0.00368 ± 0.23	-0.973 ± 0.47

Sequence	self-splicing fitness (ln) (30 °C)	self-splicing fitness (ln) (37 °C)
UCGAAGCAAUAUUACGCCAU	-3.42 ± 0.32	-2.52 ± 0.48
UCGAAGCAAUAUUACGCCCG	-1.33 ± 0.16	-0.864 ± 0.17
UCGAAGCAAUAUUACGCGUA	-1.46 ± 0.15	-1.19 ± 0.13
UCGAAGCAAUAUUACGCUCU		-1.36 ± 0.34
UCGAAGCAAUAUUACGCUUA	-2.28 ± 0.28	-3.61 ± 0.37
UCGAAGCAAUAUUACGCUUU	-4.08 ± 0.3	-2.94 ± 0.35
UCGAAGCAAUAUUACGGACA	-0.385 ± 0.15	-0.235 ± 0.23
UCGAAGCAAUAUUACGGAGC		-1.75 ± 0.33
UCGAAGCAAUAUUACGGAGG	-2.79 ± 0.32	-1.82 ± 0.41
UCGAAGCAAUAUUACGGAUA	-1.08 ± 0.15	-1.15 ± 0.19
UCGAAGCAAUAUUACGGGAA	-2.02 ± 0.12	-0.804 ± 0.11
UCGAAGCAAUAUUACGGGAU	-3.98 ± 0.31	-3.17 ± 0.32
UCGAAGCAAUAUUACGUAUC	-3.96 ± 0.35	
UCGAAGCAAUAUUACGUAUU	-2.99 ± 0.18	-3.17 ± 0.31
UCGAAGCAAUAUUACGUCUG	-0.0903 ± 0.069	-0.194 ± 0.077
UCGAAGCAAUAUUACGUGUG	-1.43 ± 0.061	-0.757 ± 0.073
UCGAAGCAAUAUUACGUUAG	-1.25 ± 0.1	-1.35 ± 0.13
UCGCAGCAAUAUUACGAACA	-1.65 ± 0.12	0.339 ± 0.13
UCGCAGCAAUAUUACGAAUA	-2.57 ± 0.22	-1.74 ± 0.16
UCGCAGCAAUAUUACGAGCA	-1.25 ± 0.23	-0.449 ± 0.27
UCGCAGCAAUAUUACGAGCU	-3.14 ± 0.39	-2.22 ± 0.26
UCGCAGCAAUAUUACGAUGU	-2.15 ± 0.18	-2.31 ± 0.28
UCGCAGCAAUAUUACGAUUU	-3.55 ± 0.34	-2.24 ± 0.17
UCGCAGCAAUAUUACGCAAA	-2.05 ± 0.13	-1.53 ± 0.11
UCGCAGCAAUAUUACGCCCU	-1.18 ± 0.13	-0.902 ± 0.15

Sequence	self-splicing fitness (ln) (30 °C)	self-splicing fitness (ln) (37 °C)
UCGCAGCAAUAUUACGCCGG	-2.67 ± 0.22	-1.76 ± 0.38
UCGCAGCAAUAUUACGGCCU	-0.665 ± 0.057	0.148 ± 0.076
UCGCAGCAAUAUUACGGCGC	-1.87 ± 0.12	-0.971 ± 0.17
UCGCAGCAAUAUUACGGGAU	-3.64 ± 0.25	-2.3 ± 0.18
UCGCAGCAAUAUUACGGGUA	-1.78 ± 0.071	-1.08 ± 0.052
UCGCAGCAAUAUUACGGUCU	-3.22 ± 0.2	-1.13 ± 0.12
UCGCAGCAAUAUUACGGUGC	-4.1 ± 0.24	-1.62 ± 0.15
UCGCAGCAAUAUUACGUAAG	-1.4 ± 0.099	-1.12 ± 0.11
UCGCAGCAAUAUUACGUUCG	-0.961 ± 0.088	-0.562 ± 0.094
UCGGAGCAAUAUUACGACUG	-1.59 ± 0.31	0.217 ± 0.17
UCGGAGCAAUAUUACGCUGA	-2.56 ± 0.29	-2.16 ± 0.2
UCGGAGCAAUAUUACGGAGG	-3.68 ± 0.46	-1.98 ± 0.34
UCGGAGCAAUAUUACGGCGU	-1.82 ± 0.22	-0.847 ± 0.16
UCGGAGCAAUAUUACGGGGU	-3.57 ± 0.29	
UCGGAGCAAUAUUACGGUCA	-0.984 ± 0.18	
UCGGAGCAAUAUUACGGUGG	-3.35 ± 0.12	-2.01 ± 0.16
UCGGAGCAAUAUUACGUGAG	-1.65 ± 0.096	-1.01 ± 0.12
UCGGAGCAAUAUUACGUGCU		-2.66 ± 0.27
UCGGAGCAAUAUUACGUUAA	-2.69 ± 0.31	-2.78 ± 0.32
UCGUAGCAAUAUUACGAAAA	-2.3 ± 0.36	-1.77 ± 0.46
UCGUAGCAAUAUUACGAAAU	-3.8 ± 0.33	-1.65 ± 0.26
UCGUAGCAAUAUUACGACCG	-1.23 ± 0.18	-0.438 ± 0.34
UCGUAGCAAUAUUACGAGCG	-0.988 ± 0.14	-1.13 ± 0.21
UCGUAGCAAUAUUACGCACA	-2.52 ± 0.21	-1.7 ± 0.2
UCGUAGCAAUAUUACGCAUA	-1.57 ± 0.16	-1.34 ± 0.21

Sequence	self-splicing fitness (ln) (30 °C)	self-splicing fitness (ln) (37 °C)
UCGUAGCAAUAUUACGCCAA	-3.89 ± 0.3	-1.4 ± 0.17
UCGUAGCAAUAUUACGCCUG	-0.246 ± 0.12	0.322 ± 0.13
UCGUAGCAAUAUUACGCUGA	-2.45 ± 0.28	-1.35 ± 0.15
UCGUAGCAAUAUUACGGAGG	-2.53 ± 0.27	-3.14 ± 0.3
UCGUAGCAAUAUUACGGUAC	-4.6 ± 0.46	-3.01 ± 0.34
UCGUAGCAAUAUUACGGUAU	-2.96 ± 0.22	-1.93 ± 0.28
UCGUAGCAAUAUUACGGUUA	-1.39 ± 0.15	-0.71 ± 0.12
UCGUAGCAAUAUUACGUCAA	-2.24 ± 0.23	-1.53 ± 0.15
UCGUAGCAAUAUUACGUCAC	-1.39 ± 0.18	-2 ± 0.38
UCGUAGCAAUAUUACGUCGA	-2.49 ± 0.17	-1.91 ± 0.15
UCGUAGCAAUAUUACGUCGG	-1.49 ± 0.15	-0.337 ± 0.17
UCUAAGCAAUAUUACGAAAC		-2.6 ± 0.45
UCUAAGCAAUAUUACGAACG	-1.64 ± 0.094	-1.28 ± 0.11
UCUAAGCAAUAUUACGAAUG	-1.16 ± 0.095	-0.995 ± 0.12
UCUAAGCAAUAUUACGACAA	-1.13 ± 0.11	-1.33 ± 0.11
UCUAAGCAAUAUUACGAGGG	-3.29 ± 0.47	-2.61 ± 0.27
UCUAAGCAAUAUUACGAUCA	-0.876 ± 0.21	-0.379 ± 0.14
UCUAAGCAAUAUUACGAUGA	-0.162 ± 0.058	0.0109 ± 0.072
UCUAAGCAAUAUUACGCCAG	-1.18 ± 0.12	-0.166 ± 0.16
UCUAAGCAAUAUUACGCCCC		-1.6 ± 0.44
UCUAAGCAAUAUUACGCCGU	-1.72 ± 0.12	-1.09 ± 0.19
UCUAAGCAAUAUUACGCGUC	-3.36 ± 0.24	-2.01 ± 0.18
UCUAAGCAAUAUUACGCUGA	-3.56 ± 0.41	-2.52 ± 0.33
UCUAAGCAAUAUUACGGAGG	-2.49 ± 0.26	-3.05 ± 0.43
